Laboratory results from the RNAGym collection of RNA variant scans (doi:10.7554/elife.90254).

B1: LINE1-full (parent)
chain: UACGUAGGUGGUUUUCCCCUGAUAGUGCUAAGGGGGCCUGGAAGUUUGGACUGGGCAGAGCUCAACACAGCGUGGCAAAGUGGCUGUGGCUAGACUGCCUCUCUGGAUUCCUCGUCACUCAGCAGGGCAUCUCUGAGAGAAAUGCC

Variants of: B1
Assay: self-cleavage, relative activity (ratio to wild type); higher = more cleavage; in vitro, sequencing; the parent is a self-cleaving ribozyme

Which self-cleavage does the source give for UACGUAGGUGGUUUUCCCCUGAUAGUGCUAAGGGGGCAUGGAAGUUUGGACUGGGCAGAGCUCAACACAGCGUGGCAAAGUGGCUGUGGCUAGACUGCCUCUCUGGAUUCCUCGUCACUCAGCAGGGCAUCUCUGAGAGUAAUGCC [C38A A140U] here?
The self-cleavage was 1.1.

Which self-cleavage does the source give for UACGUAGGUGGUUUUCCCCUGAUAGCGCUAAGGGGGCCUGGAAGUUUGGACUGGGCAGAGCUCAACACAGCGUGGCAAAGUGGCUGUGGCUAGACUGCCUCUCUGGAUUCCUCUUCACUCAGCAGGGCAUCUCUGAGAGAAAUGCC [U26C G114U] here?
Its self-cleavage is 1.49.

For UACGUAGGUGGUUUUCCCCUGAUAGUGCUAAGGGGGCCUGGAAGUUUGGACUGGGCAGAGCUCAACACAGCGUGGCAAAGUGGUUGUGGCUAGACUGCCCCUCUGGAUUCCUCGUCACUCAGCAGGGCAUCUCUGAGAGAAAUGCC [C84U U100C], which self-cleavage is on record?
Its self-cleavage is 0.21.

For UACGUAGGUGGUUUCCCCCUGAUAGUGCUAAGGGGGCCUGGAAGUUUGGACUGGGCAGAGCUCAACACAGCGUGGCAAAGUGGCUGUGGCUAGACUGCCUCUCUGGAUUCCUCGUCACUCAGCAGGGCAUCUCUGAGCGAAAUGCC [U15C A138C], which self-cleavage is on record?
Its self-cleavage is 1.59.

Which self-cleavage does the source give for UACGUAGGUGGUUUUCCCCUGAUAGUGCUAAGGGGGCCUGGAAGUUUGGACUGGGCAGAGCUCAUCACAGCGUGGCAAAGCGGCUGUGGCUAGACUGCCUCUCUGGAUUCCUCGUCACUCAGCAGGGCAUCUCUGAGAGAAAUGCC [A65U U81C] here?
The self-cleavage was 0.19.

Which self-cleavage does the source give for UGCGUAGGUGGUUUUCCCCUGAUAGUGCUAAGGGGGCCUGGAAGUUUGGACUGGGCAGAGCUCAACACAGCGUGGCAAAGUGGCUGUGGCUAGACUGCCUCUCUGGAUUCCUCGUCACCCAGCAGGGCAUCUCUGAGAGAAAUGCC [A2G U119C] here?
The self-cleavage was 1.32.

Which self-cleavage does the source give for UACGUAGGUGGUUCUCCCCUGAUAGUGCUAAGGGGGCCUGGAAGUUUGGACUGGGCAGAGGUCAACACAGCGUGGCAAAGUGGCUGUGGCUAGACUGCCUCUCUGGAUUCCUCGUCACUCAGCAGGGCAUCUCUGAGAGAAAUGCC [U14C C61G] here?
The self-cleavage was 0.1.

Which self-cleavage does the source give for UACGUAGGUGGUUUUCCCCUGAUAGUGCUAAGGGGGCCUGGAAGUUUGGACUGGGCAGAGCUCAACACAGCGUGGCAAAGUGGCUGUGGCUAGACUGCCUCUCUGGAUCCCUCGUCACUCAGCAGGGCAUCACUGAGAGAAAUGCC [U109C U132A] here?
The self-cleavage was 1.14.

Which self-cleavage does the source give for UACGUAGGUGGUUUUCCCCUGAUAGUGCUAAGGGGGCCUGGAAGUUUGGACUGGGCAGAGCUCAACACAGUGUGGCAAAGUGGCUGUGGCUAGACUGCCUCUCUGGAUUCCUCGUCACUCAGCAGGGCAUCUCUGAGAGAGAUGCC [C71U A141G] here?
Its self-cleavage is 0.68.

For UACGUAGGUGGUUUUCCCCUGAUAGUGCUAAGGGGGCCUGGAAGUUUGGACUGGGCAGAGCUCAACACAGCGUGGCAAAGUGGCUGUGCCUAGACUGCCUCUCUGGGUUCCUCGUCACUCAGCAGGGCAUCUCUGAGAGAAAUGCC [G89C A107G], which self-cleavage is on record?
The self-cleavage was 0.11.

For UACGUAGGUGGUUUUCCCCUGAUAGUGCUAAGGGGGCCUGGAGGUUUGGACUGGGCAGAGCUCAACACAGCGUGGCAAAGUGGCUGUGGAUAGACUGCCUCUCUGGAUUCCUCGUCACUCAGCAGGGCAUCUCUGAGAGAAAUGCC [A43G C90A], which self-cleavage is on record?
The self-cleavage was 0.07.

Which self-cleavage does the source give for UACGUAGGUGGUUUUCCCCUGAUAGUGCUAAGGGGGCCUGGAAGUUUGGACUGGGCAGAGCUCAACACAGCGUGGCAAAGUGGCUGUGGCUAGACUGCCUCUCUGGAUUGCUCGUCACUCAGCAGGGCAUCUCUGAGAGAAAUGCC [C110G] here?
The self-cleavage was 1.04.

For UACGUAGGUGGUUUUCCCCUGAUAGUGCUAAGGGGGCCUGGAAGUUUGGACUGGGCAGAGCUCAACACAGCGUGGCAGAGUGGCUGUGGCUAGACUGCCUCUCUGGAUUCCUCGUCCCUCAGCAGGGCAUCUCUGAGAGAAAUGCC [A78G A117C], which self-cleavage is on record?
The self-cleavage was 1.69.

For UACGUAGGUGGUUUUCCCCUGAUAGUGCUAAGGGGGCCUGGAAGUUUGGACUGGGCAGAGCUCAACACAGCGUGGCAAAGUGGCUGUGGCUAGACUGCCUCUCUGGAUUCCUUGUCGCUCAGCAGGGCAUCUCUGAGAGAAAUGCC [C113U A117G], which self-cleavage is on record?
Its self-cleavage is 1.54.

Which self-cleavage does the source give for UACGUAGGUGGUUUUCCCCUGAUAGUGCUAAUGGGGCCUGGAAGUUUGGACUGGGCAGAGCUCAACACAGCGUGGCAAAGUGGCUGUGGCUAGACUGCCUCUCUGGAUUCCUCGACACUCAGCAGGGCAUCUCUGAGAGAAAUGCC [G32U U115A] here?
Its self-cleavage is 1.04.

With UACGUAGGUGGUUUUCCCCUGAUUGUGCUAAGGGGGCCUGGAAGUUUGGACUGGGCAGAGCUCAACACAGCGUGGCAAAGUGGCUGUGGCUAGACUGCCUCUCUGGAUUCCUCGUCACUCAGCAGGGCAUCUCUGAGAGAAACGCC [A24U U143C] as the variant, how does the self-cleavage read?
The self-cleavage was 1.63.

Which self-cleavage does the source give for UACGUAGGUGGUUUUCCCCUGAUAGAGCUACGGGGGCCUGGAAGUUUGGACUGGGCAGAGCUCAACACAGCGUGGCAAAGUGGCUGUGGCUAGACUGCCUCUCUGGAUUCCUCGUCACUCAGCAGGGCAUCUCUGAGAGAAAUGCC [U26A A31C] here?
Its self-cleavage is 1.04.

With UACGUAGGUGGUUCUCCCCUGAUAGUGCUAAGGGGGCCUGGAAGUUUGGACUGGGCAGAGCUCAACACAGCGUGGCAAAGUGGCUGUGGCUGGACUGCCUCUCUGGAUUCCUCGUCACUCAGCAGGGCAUCUCUGAGAGAAAUGCC [U14C A92G] as the variant, how does the self-cleavage read?
The self-cleavage was 0.14.

For UACGUAGGUGGUUUUCCCCUGAUAGUGCUAAGGGGGCCUGGAGGUUUGGACUGGGCAGAGCUCAACACAGCGUGGCAAAGUGGCUGUGGCUAGACUGCCUCUCUGGAUUCCUCGUCACUCAGCAGGCCAUCUCUGAGAGAAAUGCC [A43G G127C], which self-cleavage is on record?
Its self-cleavage is 0.77.

For UACGUAGGUGGUUUUCCCCUGAUAGUGCUAAGGGGGCCUGGAAGUUUGGACUGGGCAGAGCUCAACACAGCGUGGCGAAGUUGCUGUGGCUAGACUGCCUCUCUGGAUUCCUCGUCACUCAGCAGGGCAUCUCUGAGAGAAAUGCC [A77G G82U], which self-cleavage is on record?
Its self-cleavage is 2.49.
